Results on one molecule are retold here after PMC3062965 (Apoptosis : an international journal on programmed cell …, 2010).

Where “and” joins values, the source holds several entries; their conditions need not be identical. Identical values can stand only once.

The target of the assay is full-length RAIDD (1-199) (human, UniProt P78560 1-199). Nature of the assay: SEC-MALS. (In general: In gel filtration, larger molecules generally elute earlier.)
full-length RAIDD (1-199), sequence (P78560 whole entry): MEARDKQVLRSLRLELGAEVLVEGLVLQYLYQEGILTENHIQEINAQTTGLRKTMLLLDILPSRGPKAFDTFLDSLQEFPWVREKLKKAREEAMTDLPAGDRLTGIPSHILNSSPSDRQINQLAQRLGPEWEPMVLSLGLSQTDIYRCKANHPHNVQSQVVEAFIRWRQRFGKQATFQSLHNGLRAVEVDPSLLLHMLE

B1: PIDD DD (777-883) (domain or fragment, human, UniProt Q9HB75 777-883, looked up)
chain: LNLGDAETGFLTQSNLLSVAGRLGLDWPAVALHLGVSYREVQRIRHEFRDDLDEQIRHMLFSWAERQAGQPGAVGLLVQALEQSDRQDVAEEVRAVLELGRRKYQDS
The stoichiometry N is a count of units in the complex or per binding partner. For B1, the “stoichiometry N” value was 7 RAIDD per complex and 5 PIDD DD per complex.
